Measurements from patent publication US20140141019A1.

Target: HER3 receptor on cells (HER3-transfected NIH 3T3 fibroblasts; SKBR3 cells; BxPC3 cells) (human) (UniProt P21860)
Experiment: flow cytometry competition on SKBR3 cells; HRG varied against anti-HER3 antibody (H4B-121, control antibody D) at its 50% maximal binding concentration

Q: For “heregulin (from UniProt Q02297 177-241) (ligand)”, which IC50 is on record?
A: 2.5 nM
